Test results: patent US20140341881A1 (DERMADIS, published 2014)

What was measured:
[1] = target: T1, human neutrophil elastase (HNE) (human, UniProt P08246 30-247, limits assumed); test: residual enzyme activity against [I]o/[E]o, fluorogenic substrate
T1 sequence (looked up): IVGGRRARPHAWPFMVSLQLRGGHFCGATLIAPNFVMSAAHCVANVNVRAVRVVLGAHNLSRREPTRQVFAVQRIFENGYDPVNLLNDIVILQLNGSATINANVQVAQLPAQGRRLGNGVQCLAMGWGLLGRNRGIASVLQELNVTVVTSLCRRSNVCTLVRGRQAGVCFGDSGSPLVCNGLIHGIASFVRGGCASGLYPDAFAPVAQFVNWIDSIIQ
Method: (§1) The stoichiometry of inhibition (SI) values were determined for the inhibition of rACTWT and its variants with hK2 and different other enzymes. An initial test was made with a molar excess of rACT (100 fold) over hK2, PSA, hK1, chymotrypsin (Chtr), plasma kallikrein (PK), urokinase (uPA) and human neutrophile elastase (HNE) enzymes. The reaction was carried out for 30 min at 25° C. (90 min at 37° C. for PSA) in reaction buffer (50 mM Tris pH 7.5, 150 mM NaCl, 0,05% Triton X-100, 0.01% BSA) and residual enzyme activity was measured by adding fluorescent substrates (Z-Phe-Arg-AMC for hK1, hK2 and PK, Suc-Ala-Ala-Pro-Phe-AMC for Chtr, Z-Gly-Gly-Arg-AMC for uPA, MeOSuc-Ala-Ala-Pro-Val-AMC for HNE, and CFP-TFRSA-YFP (TFRSA SEQ ID NO:137) for PSA). Activity of enzyme in presence of inhibitors was compared to uninhibited reaction. For reactions where an inhibition was observed, SI was determined by incubating different concentrations of recombinant serpins. Using linear regression analysis of fractional activity (velocity of inhibited enzyme reaction/velocity of uninhibited enzyme reaction) versus the molar ratio of the inhibitor to enzyme ([Iₒ]/[Eₒ]), the stoichiometry of inhibition, corresponding to the abscissa intercept, was obtained.

human kallikrein 2 (hK2) [2] = target: T2, human kallikrein 2 (hK2) (human, UniProt P20151 25-261); test: as above
T2 construct: two preparations treated as one molecule; also called kallikrein hK2
Method: as §1

[3] = target: T3, human plasma kallikrein (PK) (human, UniProt P03952 20-638); test: as above
T3 sequence (P03952 20-638 limits assumed): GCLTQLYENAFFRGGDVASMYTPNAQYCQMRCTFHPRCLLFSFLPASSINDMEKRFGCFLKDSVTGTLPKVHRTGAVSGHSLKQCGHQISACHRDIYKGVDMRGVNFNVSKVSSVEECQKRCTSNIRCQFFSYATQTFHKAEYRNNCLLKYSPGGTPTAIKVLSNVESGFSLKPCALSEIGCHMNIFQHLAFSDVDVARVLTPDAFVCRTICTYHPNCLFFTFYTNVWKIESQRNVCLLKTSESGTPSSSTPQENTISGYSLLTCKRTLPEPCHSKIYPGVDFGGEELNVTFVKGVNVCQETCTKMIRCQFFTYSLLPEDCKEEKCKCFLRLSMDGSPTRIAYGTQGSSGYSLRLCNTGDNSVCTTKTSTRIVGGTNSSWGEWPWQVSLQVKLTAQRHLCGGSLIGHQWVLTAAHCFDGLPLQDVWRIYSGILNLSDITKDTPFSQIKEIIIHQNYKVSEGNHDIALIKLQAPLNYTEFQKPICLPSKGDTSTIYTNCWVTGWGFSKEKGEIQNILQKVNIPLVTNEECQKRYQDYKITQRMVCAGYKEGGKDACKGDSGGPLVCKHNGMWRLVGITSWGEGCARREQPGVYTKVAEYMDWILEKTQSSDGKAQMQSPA
Method: as §1

[4] = target: urokinase plasminogen activator (uPA) (UniProt P00749 21-431, limits assumed); test: cell-based or functional assay
[5] = target: T1, human neutrophil elastase (HNE); test: cell-based or functional assay
human kallikrein 2 (hK2) [6] = target: T2, human kallikrein 2 (hK2); test: cell-based or functional assay
[7] = target: T3, human plasma kallikrein (PK); test: cell-based or functional assay
human kallikrein hK1 = human kallikrein hK1 (human, UniProt P06870 25-262); test: cell-based or functional assay
[8] = target: T1, human neutrophil elastase (HNE); test: progress curve, pseudo-first order, fluorogenic substrate
Method: (§2) Under these conditions, a fixed amount of enzyme (2 nM) was mixed with different concentrations of inhibitor (0-800 nM) and an excess of substrate (10 μM). Each reaction was made in reaction buffer (50 mM Tris pH 7.5, 150 mM NaCl, 0,05% Triton X-100, 0.01% BSA) at 25° C. for 45 min and the rate of product formation was measured using a FLₓ800 fluorescence 96-well microplate reader (Biotek, USA). In this model, inhibition is considered to be irreversible over the course of reaction and the progress of enzyme activity is expressed by product formation (P), beginning at a rate (vz) and is inhibited over time (t) at a first-order rate (kobs), rate constant that is dependent only on inhibitor concentration.

human kallikrein 2 (hK2) [9] = target: T2, human kallikrein 2 (hK2); test: as above
Method: as §2

[10] = target: T3, human plasma kallikrein (PK); test: as above
Method: as §2

SI (stoichiometry of inhibition) [1]: 159
SI (stoichiometry of inhibition) (human kallikrein 2 (hK2) [2]): 19
SI (stoichiometry of inhibition) [3]: 16
INHIBITION % [4]: 0%
INHIBITION % [5]: 60%
INHIBITION % (human kallikrein 2 (hK2) [6]): 100%
INHIBITION % [7]: 100%
INHIBITION % (human kallikrein hK1): 0%
kon [8]: 1190 M⁻¹ s⁻¹
kon (human kallikrein 2 (hK2) [9]): 3440 M⁻¹ s⁻¹
kon [10]: 8020 M⁻¹ s⁻¹
B1: rACT6.1 (other)
chain: MRGSHHHHHHSRHPNSPLDEENLTQENQDRGTHVDLGLASANVDFAFSLYKQLVLKAPDKNVIFSPLSISTALAFLSLGAHNTTLTEILKGLKFNLTETSEAEIHQSFQHLLRTLNQSSDELQLSMGNAMFVKEQLSLLDRFTEDAKRLYGSEAFATDFQDSAAAKKLINDYVKNGTRGKITDLIKDLDSQTMMVLVNYIFFKAKWEMPFDPQDTHQSRFYLSKKKWVMVPMMSLHHLTIPYFRDEELSCTVVELKYTGNASALFILPDQDKMEEVEAMLLPETLKRWRDSLEFREIGELYLPKFSISRDYNLNDILLQLGIEEAFTSKADLSGITGARNLAVSQVVHKAVLDVFEEGTEASAATAVKIMTRSNAVETRTIVRFNRPFLMIIVPTDTQNIFFMSKVTNPKQA
notes: recombinant ACT variant, RSL substrate peptide MTRSN; N-terminal His tag, E. coli TG1; also called MD61; MD 61
